Source: US20210179686A1, “CELL SORTING SYSTEMS AND METHODS OF USE” (MEMORIAL SLOAN-KETTERING CANCER CENTER, priority 2018, published 2021)

System: soluble CD28-Fc
Experiment: binding of soluble CD28-Fc by CD80 functionalized leucine zipper T cells
Conditions: FIG. 21B
Description: CD80 (B7-1) molecule functionalized to present blocked capture leucine zipper, permitting magnetic sorting with FLAG-RR12EE345L leucine zipper. T cells were transduced with vectors encoding (a) FLAG-RR12EE345L iCaspase9 CD19-myc-CAR and (b) RR12EE345L linker EE12RR345L CD80 CD20-streptag-CAR. Next, cells were magnetically sorted with anti-FLAG magnetic beads.

B1: RR12EE345L linker EE12RR345L CD80: CD80 (B7-1) functionalized to present blocked capture leucine zipper, SEQ ID NO: 142 (protein)
chain: METDTLLLWVLLLWVPGSTGLEIRAAFLRQRNTALRTEVAELEQEVQRLENEVSQYETRYGPLGGGKGGGGSGGGGSGGGGSGGGSLEIEAAFLERENTALETRVAELRQRVQRLRNRVSQYRTRYGPLGGGKEFTGSTSGSGKPGSGEGSTKGVDEQLSKSVKDKVLLPCRYNSPHEDESEDRIYWQKHDKVVLSVIAGKLKVWPEYKNRTLYDNTTYSLIILGLVLSDRGTYSCVVQKKERGTYEVKHLALVKLSIKADFSTPNITESGNPSADTKRITCFASGGFPKPRFSWLENGRELPGINTTISQDPESELYTISSQLDFNTTRNHTIKCLIKYGDAHVSEDFTWEKPPEDPPDSKNTLVLFGAGFGAVITVVVIVVIIKCFCKHRSCFRRNEASRETNNSLTFGPEEALAEQTVFL
Q: With B1 as the molecule, how does the “binding to soluble CD28-Fc” value read?
A: bound to soluble CD28-Fc
